Assay results from US20240010696A1.

Target: mouse IL-12 receptor on cells (mouse) (UniProt Q60837)
Assay: cell-based or functional assay

Sequence of mouse IL-12 receptor on cells (mouse) (Q60837 20-738, chain 1 of 2): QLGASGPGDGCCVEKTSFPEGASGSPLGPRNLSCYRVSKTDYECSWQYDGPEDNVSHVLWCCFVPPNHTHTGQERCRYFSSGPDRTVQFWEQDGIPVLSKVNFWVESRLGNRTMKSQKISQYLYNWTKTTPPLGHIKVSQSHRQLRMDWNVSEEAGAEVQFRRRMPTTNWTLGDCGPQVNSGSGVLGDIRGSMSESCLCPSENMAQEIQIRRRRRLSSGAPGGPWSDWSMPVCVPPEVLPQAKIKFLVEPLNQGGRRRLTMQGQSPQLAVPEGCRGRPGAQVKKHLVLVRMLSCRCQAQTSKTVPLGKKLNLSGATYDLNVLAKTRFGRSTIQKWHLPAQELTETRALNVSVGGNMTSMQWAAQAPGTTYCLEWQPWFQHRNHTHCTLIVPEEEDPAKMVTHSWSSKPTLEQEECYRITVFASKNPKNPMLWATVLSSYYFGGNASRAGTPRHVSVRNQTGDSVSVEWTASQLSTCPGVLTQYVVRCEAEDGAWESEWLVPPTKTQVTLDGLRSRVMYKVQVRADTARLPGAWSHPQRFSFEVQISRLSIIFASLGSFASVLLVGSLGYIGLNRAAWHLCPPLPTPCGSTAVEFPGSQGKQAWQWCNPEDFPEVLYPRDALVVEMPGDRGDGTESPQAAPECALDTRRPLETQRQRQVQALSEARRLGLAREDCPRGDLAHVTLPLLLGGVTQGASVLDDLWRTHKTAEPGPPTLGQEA
Sequence of mouse IL-12 receptor on cells (mouse) (P97378 24-874, chain 2 of 2, further chain): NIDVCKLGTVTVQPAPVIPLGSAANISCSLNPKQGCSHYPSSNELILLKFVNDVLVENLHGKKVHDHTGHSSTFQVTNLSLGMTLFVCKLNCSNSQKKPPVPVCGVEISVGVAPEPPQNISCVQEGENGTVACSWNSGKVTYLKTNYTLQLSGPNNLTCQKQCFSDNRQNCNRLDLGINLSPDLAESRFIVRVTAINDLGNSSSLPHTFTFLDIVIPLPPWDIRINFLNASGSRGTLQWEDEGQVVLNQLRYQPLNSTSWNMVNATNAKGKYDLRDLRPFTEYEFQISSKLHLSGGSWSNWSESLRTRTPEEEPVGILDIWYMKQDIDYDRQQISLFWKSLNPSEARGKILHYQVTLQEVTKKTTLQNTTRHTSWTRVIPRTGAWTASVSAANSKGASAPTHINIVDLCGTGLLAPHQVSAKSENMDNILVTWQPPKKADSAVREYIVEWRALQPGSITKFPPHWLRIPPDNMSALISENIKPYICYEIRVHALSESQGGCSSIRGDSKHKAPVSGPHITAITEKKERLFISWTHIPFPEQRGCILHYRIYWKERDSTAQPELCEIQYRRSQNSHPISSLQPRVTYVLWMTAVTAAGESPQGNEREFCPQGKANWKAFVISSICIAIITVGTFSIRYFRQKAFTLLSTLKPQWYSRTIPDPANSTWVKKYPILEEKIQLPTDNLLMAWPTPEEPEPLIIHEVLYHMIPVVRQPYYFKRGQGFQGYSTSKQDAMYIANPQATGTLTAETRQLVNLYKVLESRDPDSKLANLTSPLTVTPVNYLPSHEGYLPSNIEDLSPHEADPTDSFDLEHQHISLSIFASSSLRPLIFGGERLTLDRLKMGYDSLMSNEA

B1: mIL12 mutein-isotype (mouse IL-12 mutein fused to a human isotype (IgG1) control antibody) (protein, part only; not given: isotype control antibody, part only)
chain: MWELEKDVYVVEVDWTPDAPGETVNLTCDTPEEDDITWTSDQRHGVIGSGKTLTITVKEFLDAGQYTCHKGGETLSHSHLLLHKKENGIWSTEILKNFKNKTFLKCEAPNYSGRFTCSWLVQRNMDLKFNIKSSSSSPDSRAVTCGMASLSAEKVTLDQRDYEKYSVSCQEDVTCPTAEETLPIELALEARQQNKYENYSTSFFIRDIIKPDPPKNLQMKPLKNSQVEVSWEYPDSWSTPHSYFSLKFFVGGGEKMKETEEGCNQKGAFLVEKTSTEVQCKGGNVCVQAQDRYYNSSCSKWACVPCRVRSGGGGGGSRVIPVSGPARCLSQSRNLLKTTDDMVKTAREKLEFYPCTAEDIDHEDITRDQTSTLKTCLPLELHKNESCLATRETSSTTRGSCLPPQKTSLMMTLCLGSIYEDLKMYQTEFQAINAALQNHNHQQIILDKGMLVAIDELMQSLNHNGETLRQKPPVGEADPYRVKMKLCILLHAFSTRVVTINRVMGYLSSA
  Reduction in pSTAT4 production of 2) mutein IL-12 fused to isotype mAb as compared to 1) wild-type IL12 fused to isotype mAb (activated mouse CD4 T cells, flow cytometry): 23200 fold
